According to publication PMC9342958:

B1: BCL10 full-length fused to mEos3.1 [human] / itself (parent)
chain: MEPTAPSLTEEDLTEVKKDALENLRVYLCEKIIAERHFDHLRAKKILSREDTEEISCRTSSRKRAGKLLDYLQENPKGLDTLVESIRREKTQNFLIQKITDEVLKLRNIKLEHLKGLKCSSCEPFPDGATNNLSRSNSDESNFSEKLRASTVMYHPEGESSTTPFFSTNSSLNLPVLEVGRTENTIFSSTTLPRPGDPGAPPLPPDLQLEEEGTCANSSEMFLPLRSRTVSRQ

Variants of: B1
Assay: DAmFRET (Weibull fit) in yeast cells, homotypic self-assembly
Conditions: with itself; read off a plot

Row | screen value | Variant
1 | 0.34 | MEPTAPSLTEEDLTEVKKDALENLRVYLCEKIIAERHFDHLRAKKILSREDTEEISCGTSSRKRAGKLLDYLQENPKGLDTLVESIRREKTQNFLIQKITDEVLKLRNIKLEHLKGLKCSSCEPFPDGATNNLSRSNSDESNFSEKLRASTVMYHPEGESSTTPFFSTNSSLNLPVLEVGRTENTIFSSTTLPRPGDPGAPPLPPDLQLEEEGTCANSSEMFLPLRSRTVSRQ [chain 1 R58G]
2 | 0.38 | MEPTAPSLTEEDLTEVKKDALENLRVYLCEKIIAERHFDHLRAKKILSREDTEEISCQTSSRKRAGKLLDYLQENPKGLDTLVESIRREKTQNFLIQKITDEVLKLRNIKLEHLKGLKCSSCEPFPDGATNNLSRSNSDESNFSEKLRASTVMYHPEGESSTTPFFSTNSSLNLPVLEVGRTENTIFSSTTLPRPGDPGAPPLPPDLQLEEEGTCANSSEMFLPLRSRTVSRQ [chain 1 R58Q]
3 | 0.35 | MEPTAPSLTEEDLTEVKKDALENLRVYLCEKIIAERHFDHLRAKKILSREDTEEISCLTSSRKRAGKLLDYLQENPKGLDTLVESIRREKTQNFLIQKITDEVLKLRNIKLEHLKGLKCSSCEPFPDGATNNLSRSNSDESNFSEKLRASTVMYHPEGESSTTPFFSTNSSLNLPVLEVGRTENTIFSSTTLPRPGDPGAPPLPPDLQLEEEGTCANSSEMFLPLRSRTVSRQ [chain 1 R58L]
